Values of other authors as cited in PMC11335090.

Target: AXL (Homo sapiens) (UniProt P30530)
UniProt P30530, sequence (P30530 26-451): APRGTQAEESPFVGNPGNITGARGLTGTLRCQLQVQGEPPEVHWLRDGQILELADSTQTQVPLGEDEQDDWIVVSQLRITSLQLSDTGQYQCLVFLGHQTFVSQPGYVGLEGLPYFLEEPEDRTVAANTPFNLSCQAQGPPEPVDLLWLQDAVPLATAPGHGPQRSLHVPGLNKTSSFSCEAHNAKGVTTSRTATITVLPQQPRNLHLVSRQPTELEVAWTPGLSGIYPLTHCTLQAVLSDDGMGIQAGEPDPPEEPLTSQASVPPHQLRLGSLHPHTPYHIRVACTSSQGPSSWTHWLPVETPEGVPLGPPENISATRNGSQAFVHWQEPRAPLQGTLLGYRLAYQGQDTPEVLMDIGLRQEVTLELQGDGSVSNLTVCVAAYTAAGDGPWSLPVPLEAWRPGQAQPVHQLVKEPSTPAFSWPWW

GAS6 (from UniProt Q14393)
Kd: 0.032 nM
